{
  "source": "patent EP4596580A1",
  "about": "(Staidson (Beijing) Biopharmaceuticals Co., Ltd., dated 2025)",
  "binders": {"B1": {"name": "hum_LT-m58-2 (antibody, human IgG4, V domains shown)", "VH": "QVQLVQSGAEVKKPGASVKVSCKASGYTFIDHIMNWVRKAPGQGLEWIGRIYPVSGETNYNQKFMGRVTFTVDRSTSTVYMELSSLRSEDTAVYYCGRGSYYWNAMDYWGQGTLVTVSS", "VL": "EIVMTQSPATLSVSPGERATLSCKASQSVDFDGDSYMNWYQQKPGQAPRLLIYSASNLESGIPARFSGSGSGTEFTLTISSLQSEDFAVYYCQQSIEDPWTFGQGTKVEIK", "notes": "humanized from LT-m58"}, "B2": {"name": "hum_LT-m85-4 (antibody, human IgG4, V domains shown)", "VH": "QVQLVQSGAEVKKPGASVKVSCKASGYTFTSYNVHWVRQAPGQGLEWIGAVYPGNGDTSYNQKFKGRATLTADKSTSTAYMELSSLRSEDTAVYYCARGSYYYTSSYFDHWGQGTLVTVSS", "VL": "EIVMTQSPATLSVSPGERATLSCKASQSVDFDGDSYMNWYQQKPGQAPRLLIYTASNLESGIPARFSGSGSGTEFTLTISSLQSEDFAVYYCQQSYEDPFTFGQGTKLEIK", "notes": "humanized from LT-m85"}, "B3": {"name": "hum_LT-m85-1 (antibody, human IgG4, V domains shown)", "VH": "QVQLVQSGAEVKKPGASVKVSCKASGYTFTSYNVHWVRQAPGQGLEWIGAVYPGNGDTSYNQKFKGRATLTADKSTSTVYMELSSLRSEDTAVYYCARGSYYYTSSYFDHWGQGTLVTVSS", "VL": "EIVLTQSPATLSVSPGERATLSCKASQSVDFDGDSYMNWYQQKPGQPPRLLIYTASNLESGIPARFSGSGSGTEFTLTISSLQSEDFAVYYCQQSYEDPFTFGQGTKLEIK", "notes": "humanized from LT-m85"}, "B4": {"name": "hum_LT-m85-2 (antibody, human IgG4, V domains shown)", "VH": "QVQLVQSGAEVKKPGASVKVSCKASGYTFTSYNVHWVRQAPGQGLEWMGAVYPGNGDTSYNQKFKGRATLTADKSTSTAYMELSSLRSEDTAVYYCARGSYYYTSSYFDHWGQGTLVTVSS", "VL": "EIVMTQSPATLSVSPGERATLSCKASQSVDFDGDSYMNWYQQKPGQPPRLLIYTASNLESGIPARFSGSGSGTEFTLTISSLQSEDFAVYYCQQSYEDPFTFGQGTKLEIK", "notes": "humanized from LT-m85"}, "B5": {"name": "hum_LT-m58-6 (antibody, human IgG4, V domains shown)", "VH": "QVQLVQSGAEVKKPGASVKVSCKASGYTFIDHIMNWVRKAPGQGLEWMGRIYPVSGETNYNQKFMGRATFTVDRSTSTVYMELSSLRSEDTAVYYCGRGSYYWNAMDYWGQGTLVTVSS", "VL": "DIVMTQSPDSLAVSLGERATINCKASQSVDFDGESYMNWYQQKPGQPPKLLIYSASNLESGVPDRFSGSGSGTDFTLTISSLQAEDVAVYYCQQSIEDPWTFGQGTKVEIK", "notes": "humanized from LT-m58"}, "B6": {"name": "LT-m31 (antibody, human IgG4, V domains shown)", "VH": "QIQLLQSGPELEKPGETVKISCKASGYTFTNYGMNWVKQAPGKGLKWMGWINTYTGEPTYADDFKGRFAFSLETSASTAYLQINNLKNEDTATYFCARDNWDGKGMDYWGQGTSVTVSS", "VL": "DIVLTQSPKFMSTSVGDRVSITCKASQDVDTAVAWYQQKPGHSPKLLLYWASTRHTGVPDRFTGSGSGTDFTLTISNVQSEDLADYFCHQYGSYPLTFGAGTKLELK"}},
  "key": {"[1]": {"molecular_target": "T1, His-human LIGHT (human)", "T1 chain": "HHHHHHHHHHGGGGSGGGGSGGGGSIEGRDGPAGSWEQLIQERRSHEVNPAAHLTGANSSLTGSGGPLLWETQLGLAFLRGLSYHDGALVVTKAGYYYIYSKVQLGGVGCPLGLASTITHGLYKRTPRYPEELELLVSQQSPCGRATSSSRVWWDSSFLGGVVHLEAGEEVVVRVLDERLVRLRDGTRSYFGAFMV", "assay": "cell-based or functional assay"}, "[2]": {"molecular_target": "T2, LIGHT on the surface of HEK293-LIGHT stable cells (human, UniProt O43557 1-240)", "assay": "cell-based or functional assay"}, "[3]": {"molecular_target": "T1, His-human LIGHT", "assay": "cell-based or functional assay"}, "[4]": {"molecular_target": "T1, His-human LIGHT", "assay": "ELISA, His-huLIGHT coated"}, "[5]": {"molecular_target": "T3, hFc-human LIGHT (human)", "T3 construct": "also called hFc-huLIGHT", "assay": "competition ELISA, LTβR-His coated, hFc-huLIGHT added"}, "[6]": {"molecular_target": "T4, His-mouse LIGHT (mouse)", "T4 construct": "also called His-musLIGHT", "T4 chain": "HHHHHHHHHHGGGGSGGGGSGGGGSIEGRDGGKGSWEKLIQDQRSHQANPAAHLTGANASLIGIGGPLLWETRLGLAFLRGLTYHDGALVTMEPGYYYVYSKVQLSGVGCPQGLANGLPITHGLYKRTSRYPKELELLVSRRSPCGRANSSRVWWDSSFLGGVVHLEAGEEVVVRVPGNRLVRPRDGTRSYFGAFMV", "assay": "ELISA, His-musLIGHT coated"}, "[7]": {"molecular_target": "T1, His-human LIGHT", "assay": "cell-based or functional assay"}, "[8]": {"molecular_target": "T2, LIGHT on the surface of HEK293-LIGHT …", "assay": "cell-based or functional assay", "remark": "listed apart in the source"}, "[9]": {"molecular_target": "T1, His-human LIGHT", "assay": "cell-based or functional assay"}, "[10]": {"molecular_target": "T1, His-human LIGHT", "assay": "ELISA, His-huLIGHT coated"}, "[11]": {"molecular_target": "T5, His-cynomolgus monkey LIGHT (cynomolgus monkey)", "T5 construct": "also called His-cynoLIGHT", "T5 chain": "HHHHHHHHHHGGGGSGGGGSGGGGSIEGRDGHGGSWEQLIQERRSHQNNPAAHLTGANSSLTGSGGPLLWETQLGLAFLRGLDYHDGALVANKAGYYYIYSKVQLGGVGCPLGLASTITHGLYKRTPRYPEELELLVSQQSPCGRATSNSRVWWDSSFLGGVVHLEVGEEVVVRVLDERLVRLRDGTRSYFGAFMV", "assay": "ELISA, His-cynoLIGHT coated"}, "[12]": {"molecular_target": "T3, hFc-human LIGHT", "assay": "competition ELISA, LTβR-His coated, hFc-huLIGHT added", "remark": "listed apart in the source"}, "[13]": {"molecular_target": "T5, His-cynomolgus monkey LIGHT", "assay": "ELISA, His-cynoLIGHT coated"}, "[14]": {"molecular_target": "T1, His-human LIGHT", "assay": "cell-based or functional assay"}, "[15]": {"molecular_target": "T5, His-cynomolgus monkey LIGHT", "assay": "ELISA, His-cynoLIGHT coated"}, "[16]": {"molecular_target": "T1, His-human LIGHT", "assay": "ELISA, His-huLIGHT coated"}, "[17]": {"molecular_target": "T1, His-human LIGHT", "assay": "SPR, Biacore 8K, antibody on CM5 chip"}},
  "note": "Where two headings read alike, the source gives them in different places.",
  "data": [
    {"binder": "B1", "values": [
      {"measurement": "IC50, LTβR NF-κB luciferase reporter, free LIGHT", "setting": "[1]", "result": 0.135, "unit": "nM"},
      {"measurement": "IC50, LTβR NF-κB luciferase reporter, HEK293-LIGHT cells", "setting": "[2]", "result": 5.91, "unit": "nM"},
      {"measurement": "IC50, HVEM NF-κB luciferase reporter, free LIGHT", "setting": "[3]", "result": 0.199, "unit": "nM"},
      {"measurement": "EC50", "setting": "[4]", "result": 0.0154, "unit": "nM"},
      {"measurement": "IC50", "setting": "[5]", "result": 0.258, "unit": "nM"}
    ]},
    {"binder": "B2", "values": [
      {"measurement": "binding result", "setting": "[6]", "result": "no binding"},
      {"measurement": "IC50, LTβR NF-κB luciferase reporter, free LIGHT", "setting": "[7]", "result": 0.253, "unit": "nM"},
      {"measurement": "IC50, LTβR NF-κB luciferase reporter, HEK293-LIGHT cells", "setting": "[8]", "result": 2.56, "unit": "nM"},
      {"measurement": "IC50, HVEM NF-κB luciferase reporter, free LIGHT", "setting": "[9]", "result": 0.454, "unit": "nM"},
      {"measurement": "EC50", "setting": "[10]", "result": 0.0127, "unit": "nM"},
      {"measurement": "EC50", "setting": "[11]", "result": 3.3, "unit": "pM"},
      {"measurement": "IC50", "setting": "[12]", "result": 0.308, "unit": "nM"}
    ]},
    {"binder": "B3", "values": [
      {"measurement": "binding result", "setting": "[6]", "result": "no binding"},
      {"measurement": "IC50, LTβR NF-κB luciferase reporter, free LIGHT", "setting": "[7]", "result": 0.649, "unit": "nM"},
      {"measurement": "IC50, LTβR NF-κB luciferase reporter, HEK293-LIGHT cells", "setting": "[8]", "result": 4.24, "unit": "nM"},
      {"measurement": "IC50, HVEM NF-κB luciferase reporter, free LIGHT", "setting": "[9]", "result": 0.33, "unit": "nM"},
      {"measurement": "EC50", "setting": "[10]", "result": 0.0123, "unit": "nM"},
      {"measurement": "EC50", "setting": "[11]", "result": 8.9, "unit": "pM"},
      {"measurement": "IC50", "setting": "[12]", "result": 0.274, "unit": "nM"}
    ]},
    {"binder": "B4", "values": [
      {"measurement": "binding result", "setting": "[6]", "result": "no binding"},
      {"measurement": "IC50, LTβR NF-κB luciferase reporter, free LIGHT", "setting": "[7]", "result": 0.0613, "unit": "nM"},
      {"measurement": "IC50, LTβR NF-κB luciferase reporter, HEK293-LIGHT cells", "setting": "[8]", "result": 6.02, "unit": "nM"},
      {"measurement": "IC50, HVEM NF-κB luciferase reporter, free LIGHT", "setting": "[9]", "result": 0.209, "unit": "nM"},
      {"measurement": "EC50", "setting": "[10]", "result": 0.0131, "unit": "nM"},
      {"measurement": "EC50", "setting": "[11]", "result": 14.2, "unit": "pM"},
      {"measurement": "IC50", "setting": "[12]", "result": 0.265, "unit": "nM"}
    ]},
    {"binder": "B5", "values": [
      {"measurement": "binding result", "setting": "[6]", "result": "no binding"},
      {"measurement": "EC50", "setting": "[4]", "result": 0.0349, "unit": "nM"},
      {"measurement": "EC50", "setting": "[13]", "result": 2.58, "unit": "pM"},
      {"measurement": "IC50", "setting": "[5]", "result": 0.628, "unit": "nM"}
    ]},
    {"binder": "B6", "values": [
      {"measurement": "IC50, HVEM NF-κB luciferase reporter (293T-HVEM-NF-κB-Luc), free LIGHT", "setting": "[14]", "result": 0.105, "unit": "µg/mL"},
      {"measurement": "binding result", "setting": "[15]", "result": "binds"},
      {"measurement": "EC50", "setting": "[16]", "result": 0.0256, "unit": "µg/mL"},
      {"measurement": "Kd", "setting": "[17]", "result": 0.0395, "unit": "nM"},
      {"measurement": "koff", "setting": "[17]", "result": "4.03e-05", "unit": "s⁻¹"},
      {"measurement": "kon", "setting": "[17]", "result": "1.02e+06", "unit": "M⁻¹ s⁻¹"}
    ]}
  ]
}
